Reference: patent US20210122813A1 (Kyowa Kirin, published 2021)
Residue numbers refer to the chain shown, from its start. Where two headings read alike, the source gives them in different places. Values belong to the molecule of their own block, whether it stands above or below them.

How the values were obtained:
[1] = target: human BMP10 mature dimer (manufactured by R & D Systems, Inc., Cat #2926-BP) (human) (UniProt O95393); assay: SPR (Biacore T100), antibody captured by anti-mouse IgG, human BMP10 mature dimer as analyte
[2] = target: T1, human BMP10 mature dimer (manufactured by R & D Systems, Inc., Cat #2926-BP) (human, UniProt O95393 317-424); assay: SPR (Biacore T100), antibody captured by anti-human IgG, human BMP10 mature dimer as analyte
T1 construct: Bought product; also called human mature BMP10; mature BMP10
T1 sequence: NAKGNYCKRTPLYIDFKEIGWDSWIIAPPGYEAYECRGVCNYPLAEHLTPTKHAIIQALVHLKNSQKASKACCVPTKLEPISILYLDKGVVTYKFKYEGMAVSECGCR
Experimental: (§1) Further, subsequently, human mature BMP10 prepared at 5 concentrations by 3-fold serial dilution from 300 ng/mL was added thereto at a flow rate of 30 μL/min, and a binding reaction was monitored for 1 minute and a dissociation reaction was monitored for 30 minutes. The obtained sensorgram was analyzed using Bia Evaluation Software (manufactured by GE Healthcare Bio-Sciences Corporation), and the kinetic constant of each antibody was calculated.

[3] = target: T1, human BMP10 mature dimer (manufactured …); assay: as above; remark: listed apart in the source
Experimental: (§2) The binding activity of the anti-BMP10 antibody was measured as follows. An anti-human IgG antibody was immobilized on a CMS sensor chip (manufactured by GE Healthcare Bio-Sciences, Inc., BR100530) using Human Antibody Capture Kit (manufactured by GE Healthcare Bio-Sciences Corporation, Cat #BR-1008-39) according to the attached protocol. To a flow cell in which the anti-human IgG antibody was immobilized, the antibody prepared at 5 μg/mL was added at a flow rate of 10 μL/min for 10 seconds.
as §1, with “Subsequently, human” for “Further, subsequently, human”, “from the 100” for “from 300”, “for 10” for “for 30”, “calculated. The calculated association rate constant (ka), dissociation rate constant (kd), and dissociation constant [kd/ka=KD] of each antibody are shown in Table 4.” for “calculated.”

[4] = target: T1, human BMP10 mature dimer (manufactured …); assay: SPR (Biacore T100), antibody captured by anti-human IgG, human BMP10 mature dimer as analyte; 100 ng/mL top concentration, 10 minutes dissociation (Example 13, Table 4)
Experimental: as §2
as §1, with “Subsequently, human” for “Further, subsequently, human”, “from the 100” for “from 300”, “for 10” for “for 30”, “calculated. The calculated association rate constant (ka), dissociation rate constant (kd), and dissociation constant [kd/ka=KD] of each antibody are shown in Table 4.” for “calculated.”

Kd [1]: 33.1 pM
Molecule: MAB2926 (clone No. 462732, R & D Systems, Inc.) (antibody)

Kd [2]: 2.62 pM | Kd [3]: 2.62 pM | kon [4]: 3.88e+07 M⁻¹ s⁻¹
B1: 18C1 chimeric antibody (antibody, V domains shown)
VH: QVQLKETGPDLVQLTQTLSITCTVSGFSLTTYNVHWVRQPPGKGLEWMGTMWNGGGIDYNSAFKSRLSISRDTSKSQVFLKMNSLQTDDTAKYFCARLGYYVDYWGHGIMVTVSS
VL: QFVLIQSNSMSTSLGSTVKLSCKRSTGNIGSSYVYWYQQHEGRSPTTMIYDGDKRPDGVPDRFSGSIDSSSNSAFLTINNVQIEDEAIYFCQSFSSGIKFIFGGGTKLTVL
notes: also called ch18C1 antibody; ch18C1

Kd [2]: 11.8 pM
B2: 12H3 chimeric antibody (antibody, V domains shown)
VH: B1 VH with T30S, T50A, D58N, L98F, Y101G, V102F, H107Q, I109V
VL: ETVMTQSPTSMSTSIGERVTLNCKASQSVGINVDWYQRTPGQSPKLLIHGASNRHTGVPDRFTGSGFGRDFTLTISNVEAEDLTIYYCLQYGSIPLTFGAGTKLELI
notes: also called ch12H3 antibody

Kd [2]: 6.26 pM
B3: 11H10 chimeric antibody (antibody, V domains shown)
VH: B1 VH with T50A, I57T, G99A, Y100E, Y101G, V102F, H107Q, I109V
VL: DTVMTQSPASMSTSVGERVTVNCKASQSVGTVVAWFQQKPGQSPKRLIYLATNRHTGVPDRFTGSGFGRDFTLTISNVEAEDLAVYYCLQYGSIPFTFGSGTKLEIK
notes: also called ch11H10 antibody

Kd [3]: 2.88 pM
B4: VLres16HVmut10 (antibody, V domains shown)
VH: QVQLQESGPDLVQPSQTLDITCTVSGFSLTTYNVHWVRQPPGKGLEWMGTMWNGGGIDYNSAFKDRLAISRDTSKNEVFLKMDSLQTDDTAVYFCARLGYYVDYWGQGILVTVSS
VL: B1 VL with V3A, N8D, L14A, N80D, I88V
notes: Humanized 18C1 antibody; also called hz18C1 antibody; anti-BMP10 humanized antibody

Kd [3]: 3.19 pM
B5: VLres16HVmut07 (antibody, V domains shown)
VH: B4 VH with E77Q, F79S, V92K
VL: B1 VL with V3A, N8D, L14A, N80D, I88V
notes: as for B4

Kd [3]: 3.69 pM
B6: VLres16VHres16 (antibody, V domains shown)
VH: B1 VH with L14P, S19D, S68A, Q77E, N83D, H107Q
VL: B1 VL with V3A, N8D, L14A, N80D, I88V
notes: Humanized 18C1 antibody; also called VLres16VHres16 antibody; hz18C1 antibody
